What was measured:
Test in all cases: cell-based or functional assay
collagenase 1 = collagenase 1 (UniProt P03956)
gelatinase B = gelatinase B (UniProt P14780)
[1] = molecular target: human Collagenase-3 (human) (UniProt P45452)

Chain of collagenase 1 (P03956 100-469 limits assumed): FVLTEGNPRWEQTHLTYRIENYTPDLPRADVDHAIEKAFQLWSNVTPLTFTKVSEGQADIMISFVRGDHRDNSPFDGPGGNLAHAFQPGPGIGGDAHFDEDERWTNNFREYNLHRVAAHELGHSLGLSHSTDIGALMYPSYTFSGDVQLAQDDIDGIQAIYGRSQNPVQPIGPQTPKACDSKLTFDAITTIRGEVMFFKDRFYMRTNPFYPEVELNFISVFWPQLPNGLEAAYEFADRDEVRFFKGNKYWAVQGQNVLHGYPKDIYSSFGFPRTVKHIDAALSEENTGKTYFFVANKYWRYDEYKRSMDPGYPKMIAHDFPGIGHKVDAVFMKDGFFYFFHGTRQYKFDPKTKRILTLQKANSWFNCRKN
Chain of gelatinase B (P14780 107-707 limits assumed): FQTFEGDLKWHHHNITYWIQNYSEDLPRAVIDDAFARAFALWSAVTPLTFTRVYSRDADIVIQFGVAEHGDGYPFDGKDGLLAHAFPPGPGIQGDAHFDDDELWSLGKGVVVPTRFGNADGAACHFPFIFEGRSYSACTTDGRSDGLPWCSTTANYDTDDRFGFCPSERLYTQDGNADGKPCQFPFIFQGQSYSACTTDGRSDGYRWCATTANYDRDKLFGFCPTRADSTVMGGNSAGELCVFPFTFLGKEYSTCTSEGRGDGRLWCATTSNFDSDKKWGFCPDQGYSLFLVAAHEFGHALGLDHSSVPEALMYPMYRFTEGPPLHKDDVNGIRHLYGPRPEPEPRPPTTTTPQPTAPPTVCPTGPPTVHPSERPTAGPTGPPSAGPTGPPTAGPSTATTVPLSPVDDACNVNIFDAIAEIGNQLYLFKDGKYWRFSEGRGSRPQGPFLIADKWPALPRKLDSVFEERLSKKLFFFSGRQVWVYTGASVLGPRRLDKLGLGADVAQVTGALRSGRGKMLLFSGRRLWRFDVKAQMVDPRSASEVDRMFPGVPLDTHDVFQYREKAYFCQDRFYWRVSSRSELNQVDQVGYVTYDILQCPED

bovine type II collagen (from UniProt P02459 182-1241)
Average Percent Inhibition from 1.1 to 6.6 Hours, Type II Collagen 0.18 ug/ml (collagenase 1): 0%
Average Percent Inhibition from 1.1 to 6.6 Hours, Type II Collagen 0.54 ug/ml (collagenase 1): 3%
Average Percent Inhibition from 1.1 to 6.6 Hours, Type II Collagen 1.63 ug/ml (collagenase 1): 0%
Average Percent Inhibition from 1.1 to 6.6 Hours, Type II Collagen 4.89 ug/ml (collagenase 1): 2%
Average Percent Inhibition from 1.1 to 6.6 Hours, Type II Collagen 14.67 ug/ml (collagenase 1): 10%
Average Percent Inhibition from 1.1 to 6.6 Hours, Type II Collagen 44.00 ug/ml (collagenase 1): 15%
Average Percent Inhibition, 0.10-1.10 h, TypeIICOL 1.6 ug/ul (collagenase 1): 19%
Average Percent Inhibition, 0.10-1.10 h, TypeIICOL 4.9 ug/ul (collagenase 1): 37%
Average Percent Inhibition, 0.10-1.10 h, TypeIICOL 15 ug/ul (collagenase 1): 44%
Average Percent Inhibition, 0.10-1.10 h, TypeIICOL 44 ug/ul (collagenase 1): 50%
Average Percent Inhibition, 0.10-1.10 h, TypeIICOL .18 ug/ul (collagenase 1): 17%
Average Percent Inhibition, 0.10-1.10 h, TypeIICOL .55 ug/ul (collagenase 1): 15%
Average Percent Inhibition, 1.10-2.10 h, TypeIICOL 1.6 ug/ul (collagenase 1): 6%
Average Percent Inhibition, 1.10-2.10 h, TypeIICOL 4.9 ug/ul (collagenase 1): 13%
Average Percent Inhibition, 1.10-2.10 h, TypeIICOL 15 ug/ul (collagenase 1): 21%
Average Percent Inhibition, 1.10-2.10 h, TypeIICOL 44 ug/ul (collagenase 1): 29%
Average Percent Inhibition, 1.10-2.10 h, TypeIICOL .18 ug/ul (collagenase 1): 3%
Average Percent Inhibition, 1.10-2.10 h, TypeIICOL .55 ug/ul (collagenase 1): 6%
Average Percent Inhibition, 2.10-3.10 h, TypeIICOL 1.6 ug/ul (collagenase 1): 0%
Average Percent Inhibition, 2.10-3.10 h, TypeIICOL 4.9 ug/ul (collagenase 1): 3%
Average Percent Inhibition, 2.10-3.10 h, TypeIICOL 15 ug/ul (collagenase 1): 12%
Average Percent Inhibition, 2.10-3.10 h, TypeIICOL 44 ug/ul (collagenase 1): 18%
Average Percent Inhibition, 2.10-3.10 h, TypeIICOL .18 ug/ul (collagenase 1): 0%
Average Percent Inhibition, 2.10-3.10 h, TypeIICOL .55 ug/ul (collagenase 1): 3%
Average Percent Inhibition, 3.10-4.10 h, TypeIICOL 1.6 ug/ul (collagenase 1): -2%
Average Percent Inhibition, 3.10-4.10 h, TypeIICOL 4.9 ug/ul (collagenase 1): 0%
Average Percent Inhibition, 3.10-4.10 h, TypeIICOL 15 ug/ul (collagenase 1): 8%
Average Percent Inhibition, 3.10-4.10 h, TypeIICOL 44 ug/ul (collagenase 1): 12%
Average Percent Inhibition, 3.10-4.10 h, TypeIICOL .18 ug/ul (collagenase 1): -1%
Average Percent Inhibition, 3.10-4.10 h, TypeIICOL .55 ug/ul (collagenase 1): 2%
Average Percent Inhibition, 4.10-5.10 h, TypeIICOL 1.6 ug/ul (collagenase 1): -3%
Average Percent Inhibition, 4.10-5.10 h, TypeIICOL 4.9 ug/ul (collagenase 1): -2%
Average Percent Inhibition, 4.10-5.10 h, TypeIICOL 15 ug/ul (collagenase 1): 6%
Average Percent Inhibition, 4.10-5.10 h, TypeIICOL 44 ug/ul (collagenase 1): 9%
Average Percent Inhibition, 4.10-5.10 h, TypeIICOL .18 ug/ul (collagenase 1): -1%
Average Percent Inhibition, 4.10-5.10 h, TypeIICOL .55 ug/ul (collagenase 1): 1%
Average Percent Inhibition, 5.10-6.10 h, TypeIICOL 1.6 ug/ul (collagenase 1): -4%
Average Percent Inhibition, 5.10-6.10 h, TypeIICOL 4.9 ug/ul (collagenase 1): -4%
Average Percent Inhibition, 5.10-6.10 h, TypeIICOL 15 ug/ul (collagenase 1): 4%
Average Percent Inhibition, 5.10-6.10 h, TypeIICOL 44 ug/ul (collagenase 1): 7%
Average Percent Inhibition, 5.10-6.10 h, TypeIICOL .18 ug/ul (collagenase 1): -1%
Average Percent Inhibition, 5.10-6.10 h, TypeIICOL .55 ug/ul (collagenase 1): 1%
Average Percent Inhibition from 1.1 to 6.6 Hours, Type II Collagen 0.18 ug/ml (gelatinase B): 9%
Average Percent Inhibition from 1.1 to 6.6 Hours, Type II Collagen 0.54 ug/ml (gelatinase B): 9%
Average Percent Inhibition from 1.1 to 6.6 Hours, Type II Collagen 1.63 ug/ml (gelatinase B): 12%
Average Percent Inhibition from 1.1 to 6.6 Hours, Type II Collagen 4.89 ug/ml (gelatinase B): 38%
Average Percent Inhibition from 1.1 to 6.6 Hours, Type II Collagen 14.67 ug/ml (gelatinase B): 65%
Average Percent Inhibition from 1.1 to 6.6 Hours, Type II Collagen 44.00 ug/ml (gelatinase B): 84%
Average Percent Inhibition, 0.10-1.10 h, TypeIICOL 1.6 ug/ul (gelatinase B): -28%
Average Percent Inhibition, 0.10-1.10 h, TypeIICOL 4.9 ug/ul (gelatinase B): 35%
Average Percent Inhibition, 0.10-1.10 h, TypeIICOL 15 ug/ul (gelatinase B): 57%
Average Percent Inhibition, 0.10-1.10 h, TypeIICOL 44 ug/ul (gelatinase B): 41%
Average Percent Inhibition, 0.10-1.10 h, TypeIICOL .18 ug/ul (gelatinase B): 3%
Average Percent Inhibition, 0.10-1.10 h, TypeIICOL .55 ug/ul (gelatinase B): 3%
Average Percent Inhibition, 1.10-2.10 h, TypeIICOL 1.6 ug/ul (gelatinase B): 14%
Average Percent Inhibition, 1.10-2.10 h, TypeIICOL 4.9 ug/ul (gelatinase B): 43%
Average Percent Inhibition, 1.10-2.10 h, TypeIICOL 15 ug/ul (gelatinase B): 67%
Average Percent Inhibition, 1.10-2.10 h, TypeIICOL 44 ug/ul (gelatinase B): 82%
Average Percent Inhibition, 1.10-2.10 h, TypeIICOL .18 ug/ul (gelatinase B): 12%
Average Percent Inhibition, 1.10-2.10 h, TypeIICOL .55 ug/ul (gelatinase B): 10%
Average Percent Inhibition, 2.10-3.10 h, TypeIICOL 1.6 ug/ul (gelatinase B): 19%
Average Percent Inhibition, 2.10-3.10 h, TypeIICOL 4.9 ug/ul (gelatinase B): 47%
Average Percent Inhibition, 2.10-3.10 h, TypeIICOL 15 ug/ul (gelatinase B): 72%
Average Percent Inhibition, 2.10-3.10 h, TypeIICOL 44 ug/ul (gelatinase B): 87%
Average Percent Inhibition, 2.10-3.10 h, TypeIICOL .18 ug/ul (gelatinase B): 11%
Average Percent Inhibition, 2.10-3.10 h, TypeIICOL .55 ug/ul (gelatinase B): 12%
Average Percent Inhibition, 3.10-4.10 h, TypeIICOL 1.6 ug/ul (gelatinase B): 15%
Average Percent Inhibition, 3.10-4.10 h, TypeIICOL 4.9 ug/ul (gelatinase B): 41%
Average Percent Inhibition, 3.10-4.10 h, TypeIICOL 15 ug/ul (gelatinase B): 69%
Average Percent Inhibition, 3.10-4.10 h, TypeIICOL 44 ug/ul (gelatinase B): 87%
Average Percent Inhibition, 3.10-4.10 h, TypeIICOL .18 ug/ul (gelatinase B): 9%
Average Percent Inhibition, 3.10-4.10 h, TypeIICOL .55 ug/ul (gelatinase B): 10%
Average Percent Inhibition, 4.10-5.10 h, TypeIICOL 1.6 ug/ul (gelatinase B): 11%
Average Percent Inhibition, 4.10-5.10 h, TypeIICOL 4.9 ug/ul (gelatinase B): 35%
Average Percent Inhibition, 4.10-5.10 h, TypeIICOL 15 ug/ul (gelatinase B): 64%
Average Percent Inhibition, 4.10-5.10 h, TypeIICOL 44 ug/ul (gelatinase B): 85%
Average Percent Inhibition, 4.10-5.10 h, TypeIICOL .18 ug/ul (gelatinase B): 7%
Average Percent Inhibition, 4.10-5.10 h, TypeIICOL .55 ug/ul (gelatinase B): 8%
Average Percent Inhibition, 5.10-6.10 h, TypeIICOL 1.6 ug/ul (gelatinase B): 7%
Average Percent Inhibition, 5.10-6.10 h, TypeIICOL 4.9 ug/ul (gelatinase B): 30%
Average Percent Inhibition, 5.10-6.10 h, TypeIICOL 15 ug/ul (gelatinase B): 59%
Average Percent Inhibition, 5.10-6.10 h, TypeIICOL 44 ug/ul (gelatinase B): 83%
Average Percent Inhibition, 5.10-6.10 h, TypeIICOL .18 ug/ul (gelatinase B): 5%
Average Percent Inhibition, 5.10-6.10 h, TypeIICOL .55 ug/ul (gelatinase B): 6%
Average Percent Inhibition from 1.1 to 6.6 Hours, Type II Collagen 0.18 ug/ml [1]: -8%
Average Percent Inhibition from 1.1 to 6.6 Hours, Type II Collagen 0.54 ug/ml [1]: -11%
Average Percent Inhibition from 1.1 to 6.6 Hours, Type II Collagen 1.63 ug/ml [1]: -11%
Average Percent Inhibition from 1.1 to 6.6 Hours, Type II Collagen 4.89 ug/ml [1]: -28%
Average Percent Inhibition from 1.1 to 6.6 Hours, Type II Collagen 14.67 ug/ml [1]: -44%
Average Percent Inhibition from 1.1 to 6.6 Hours, Type II Collagen 44.00 ug/ml [1]: -53%
Average Percent Inhibition, 0.10-1.10 h, TypeIICOL 1.6 ug/ul [1]: 16%
Average Percent Inhibition, 0.10-1.10 h, TypeIICOL 4.9 ug/ul [1]: 8%
Average Percent Inhibition, 0.10-1.10 h, TypeIICOL 15 ug/ul [1]: 6%
Average Percent Inhibition, 0.10-1.10 h, TypeIICOL 44 ug/ul [1]: 2%
Average Percent Inhibition, 0.10-1.10 h, TypeIICOL .18 ug/ul [1]: 6%
Average Percent Inhibition, 0.10-1.10 h, TypeIICOL .55 ug/ul [1]: 14%
Average Percent Inhibition, 1.10-2.10 h, TypeIICOL 1.6 ug/ul [1]: -4%
Average Percent Inhibition, 1.10-2.10 h, TypeIICOL 4.9 ug/ul [1]: -31%
Average Percent Inhibition, 1.10-2.10 h, TypeIICOL 15 ug/ul [1]: -48%
Average Percent Inhibition, 1.10-2.10 h, TypeIICOL 44 ug/ul [1]: -55%
Average Percent Inhibition, 1.10-2.10 h, TypeIICOL .18 ug/ul [1]: -9%
Average Percent Inhibition, 1.10-2.10 h, TypeIICOL .55 ug/ul [1]: -11%
Average Percent Inhibition, 2.10-3.10 h, TypeIICOL 1.6 ug/ul [1]: -15%
Average Percent Inhibition, 2.10-3.10 h, TypeIICOL 4.9 ug/ul [1]: -38%
Average Percent Inhibition, 2.10-3.10 h, TypeIICOL 15 ug/ul [1]: -59%
